Laboratory results reported in patent publication US20090238814A1.

Key:
[1] = biological target: wheat germ agglutinin (Triticum vulgaris, WGA)-agarose CL-4B (Triticum vulgaris) (UniProt P10968); assay: WGA-agarose lectin affinity chromatography, enzyme activity of fractions
[2] = biological target: concanavalin A (Canavalia ensiformis, ConA)-sepharose 4B (Canavalia ensiformis) (UniProt P02866); assay: ConA-sepharose lectin affinity chromatography, enzyme activity of fractions
[3] = biological target: wheat germ agglutinin (Triticum vulgaris, WGA)-agarose CL-4B (Triticum vulgaris) (UniProt P10968); assay: WGA-agarose lectin affinity chromatography, eluted with 0.1 M GlcNAc
[4] = biological target: concanavalin A (Canavalia ensiformis, ConA)-sepharose 4B (Canavalia ensiformis) (UniProt P02866); assay: ConA-sepharose lectin affinity chromatography, eluted with 0.5 M alpha-methyl-D-mannopyranoside
[5] = biological target: wheat germ agglutinin (Triticum vulgaris, WGA)-agarose CL-4B (Triticum vulgaris) (UniProt P10968); assay: WGA-agarose lectin affinity chromatography, eluted with 0.5 M GlcNAc
[6] = biological target: concanavalin A (Canavalia ensiformis, ConA)-sepharose 4B (Canavalia ensiformis) (UniProt P02866); assay: ConA-sepharose lectin affinity chromatography, eluted with 0.01 M alpha-methyl-D-mannopyranoside
[7] = biological target: wheat germ agglutinin (Triticum vulgaris, WGA)-agarose CL-4B (Triticum vulgaris) (UniProt P10968); assay: WGA-agarose lectin affinity chromatography after neuraminidase digestion of the enzyme
[8] = biological target: wheat germ agglutinin (Triticum vulgaris, WGA)-agarose CL-4B (Triticum vulgaris) (UniProt P10968); assay: WGA-agarose lectin affinity chromatography after neuraminidase digestion, eluted with 0.1 M GlcNAc
[9] = biological target: wheat germ agglutinin (Triticum vulgaris, WGA)-agarose CL-4B (Triticum vulgaris) (UniProt P10968); assay: WGA-agarose lectin affinity chromatography after neuraminidase digestion, eluted with 0.5 M GlcNAc
[10] = biological target: wheat germ agglutinin (Triticum vulgaris, WGA)-agarose CL-4B (Triticum vulgaris) (UniProt P10968); assay: WGA-agarose lectin affinity chromatography

Chain of UniProt P10968 (P10968 27-197): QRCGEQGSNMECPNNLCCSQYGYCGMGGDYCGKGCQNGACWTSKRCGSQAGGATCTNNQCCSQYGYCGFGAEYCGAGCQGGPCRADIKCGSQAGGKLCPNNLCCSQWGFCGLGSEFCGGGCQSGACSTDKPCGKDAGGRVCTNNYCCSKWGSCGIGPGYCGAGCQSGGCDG

Substance | percent of relative activity in Unbound fraction [1] | percent of relative activity in Unbound fraction [2] | percent of relative activity in Weakly Bound fraction [3] | percent of relative activity in Strongly Bound fraction [4] | percent of relative activity in Strongly Bound fraction [5] | percent of relative activity in Weakly Bound fraction [6] | percent of relative activity in Unbound fraction [7] | percent of relative activity in Weakly Bound fraction [8] | percent of relative activity in Strongly Bound fraction [9] | percent strongly bound to the WGA column [10]
CD6-TNSALP (human TNSALP anchorless at the C-terminal tagged with a stretch of six L-Asp) (from UniProt P05186 18-505) (enzyme) | 3% | 4% | 32% | 36% | 65% | 60% |  |  |  | 
CD6-TNSALP after neuraminidase digestion (from UniProt P05186 18-505) (enzyme) |  |  |  |  |  |  | 2% | 11% | 86% | 
CD8-TNSALP (human TNSALP anchorless at the C-terminal tagged with a stretch of eight L-Asp) (from UniProt P05186 18-505) (enzyme) | 1% | 2% | 23% | 39% | 76% | 59% |  |  |  | 
CD8-TNSALP after neuraminidase digestion (from UniProt P05186 18-505) (enzyme) |  |  |  |  |  |  | 4% | 4% | 92% | 
anchorless recombinant human TNSALP (human tissue-nonspecific alkaline phosphatase anchorless at the C-terminal) (from UniProt P05186 18-505) (enzyme) | 0% | 3% | 66% | 38% | 33% | 59% |  |  |  | 34%
anchorless rhTNSALP after neuraminidase digestion (from UniProt P05186 18-505) (enzyme) |  |  |  |  |  |  | 0% | 9% | 91% | 
